One molecule from patent US20260194540A1 (ARIZONA BOARD OF REGENTS ON BEHALF OF ARIZONA STATE …, published 2026) can be followed below.

The target in this assay is T1, TDP-43 from healthy human brain tissue (human, UniProt Q13148 1-414).
T1 construct: also called healthy TDP-43; healthy IP TDP-43
The assay can be described thus: phage ELISA on human brain tissue.

T1 sequence (Q13148 whole entry): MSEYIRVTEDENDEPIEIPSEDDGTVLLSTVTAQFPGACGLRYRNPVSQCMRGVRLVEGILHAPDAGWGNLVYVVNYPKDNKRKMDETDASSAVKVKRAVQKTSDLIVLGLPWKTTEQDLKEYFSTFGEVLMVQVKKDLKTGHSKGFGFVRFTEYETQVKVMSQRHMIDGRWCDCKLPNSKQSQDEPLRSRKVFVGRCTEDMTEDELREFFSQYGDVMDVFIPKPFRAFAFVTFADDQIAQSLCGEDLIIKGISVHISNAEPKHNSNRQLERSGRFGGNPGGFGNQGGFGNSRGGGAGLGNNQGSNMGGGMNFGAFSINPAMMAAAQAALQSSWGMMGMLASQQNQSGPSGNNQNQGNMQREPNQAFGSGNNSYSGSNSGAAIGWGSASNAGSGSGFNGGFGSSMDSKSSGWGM

B1: TDP-43 monomer clone #5 (scFv)
scFv: MAEVQLLESGGGLVRPGGSLRLSCAASGFTFSSYAMSWVRQAPGKGLEWVSDIANTGDATGYADSVKGRFTISRDNSKNTLYLQMNSLRAEDTAVYYCAKTGAAFDYWGQGTLVTVSSGGGGSGGGGSGGGGSTDIQMTQSPSSLSASVGDRVTITCRASQSISSYLNWYQQKPGKAPKLLIYAASTLQSGVPSRFSGSGSGTDFTLTISSLQPEDFATYYCQQSSSDPATFGQGTKVEIKRAA
notes: Tested as scFv attached to a phage particle, tagged with a signal moiety when used for detection; also called monomer phage #5
Consider B1, for which the binding result is on record as “binds”.
